Test results published in patent US20200024322A1 (Eli Lilly, published 2020).
Changes are numbered by the printed parent chain. Numbered stars: 1 amine (or outer) side, 2 acyl side, 3 side chain; on linkers, the order of the positions; unused ones are H or OH. Square brackets hold non-standard residues; d marks the D form. Side chains are listed from the residue outwards. Ends that are not written are not given here. * marks the point of attachment. C18 diacid = O=C(O)CCCCCCCCCCCCCCCCC(=O)*; γGlu = O=C(O)[C@H](CCC(=O)[*:2])N[*:1]; AEEA = NCCOCCOCC(=O)O; Aib = CC(C)(N)C(=O)O

B1: Example 344 (peptide)
peptide: YXEGTFTSDYSIXLDEKAQXDFIEYLIAGGPSSGAPPPS
modifications: Aib2; αMeL13; K17((2-[2-(2-Amino-ethoxy)-ethoxy]-acetyl)2-(γ-Glu)-CO-(CH2)18-CO2H); Aib20; C-terminal NH2
B2: Example 291 (peptide)
peptide: B1 peptide with Y1X, E16X, D21A, E24X
modifications: D-Tyr1; Aib2; αMeL13; Orn16; K17((2-[2-(2-Amino-ethoxy)-ethoxy]-acetyl)2-(γ-Glu)-CO-(CH2)18-CO2H); Aib20; D-Glu24; C-terminal NH2
B3: Example 362 (peptide)
peptide: XXEGTFTSDYSIXLDXKAQXAFVXYLIAGGPSSGAPPPS
modifications: D-Tyr1; Aib2; αMeL13; Orn16; K17((2-[2-(2-Amino-ethoxy)-ethoxy]-acetyl)2-(γ-Glu)-CO-(CH2)18-CO2H); Aib20; D-Glu24; C-terminal NH2
B4: Example 364 (peptide)
peptide: B3 peptide
modifications: not fully specified; D-Tyr1; Aib2; αMeL13; Orn16; K17((2-[2-(2-Amino-ethoxy)-ethoxy]-acetyl)2-(γ-Glu)-CO-(CH2)16-CO2H); Aib20; D-Glu24; C-terminal NH2
B5: Example 357 (peptide)
peptide: B3 peptide with V23I, A28E
modifications: D-Tyr1; Aib2; αMeL13; Orn16; K17((2-[2-(2-Amino-ethoxy)-ethoxy]-acetyl)2-(γ-Glu)-CO-(CH2)18-CO2H); Aib20; D-Glu24; C-terminal NH2
B6: Example 342 (peptide)
peptide: B1 peptide with Y1X, D21E
modifications: D-Tyr1; Aib2; αMeL13; K17((2-[2-(2-Amino-ethoxy)-ethoxy]-acetyl)2-(γ-Glu)-CO-(CH2)18-CO2H); Aib20; C-terminal NH2
B7: Example 354 (peptide)
peptide: B3 peptide with A21E, V23I
modifications: D-Tyr1; Aib2; αMeL13; Orn16; K17((2-[2-(2-Amino-ethoxy)-ethoxy]-acetyl)2-(γ-Glu)-CO-(CH2)18-CO2H); Aib20; D-Glu24; C-terminal NH2
B8: Example 295 (peptide)
peptide: Y[Aib]EGTFTSDYSILLDKK([AEEA-AEEA-γGlu-C18 diacid])AQHAFIEYLIEGG-NH2
modifications: N-terminus assumed
SMILES: CC[C@H](C)[C@H](NC(=O)[C@H](CC(C)C)NC(=O)[C@H](Cc1ccc(O)cc1)NC(=O)[C@H](CCC(=O)O)NC(=O)[C@@H](NC(=O)[C@H](Cc1ccccc1)NC(=O)[C@H](C)NC(=O)[C@H](Cc1c[nH]cn1)NC(=O)[C@H](CCC(N)=O)NC(=O)[C@H](C)NC(=O)[C@H](CCCCNC(=O)COCCOCCNC(=O)COCCOCCNC(=O)CC[C@H](NC(=O)CCCCCCCCCCCCCCCCC(=O)O)C(=O)O)NC(=O)[C@H](CCCCN)NC(=O)[C@H](CC(=O)O)NC(=O)[C@H](CC(C)C)NC(=O)[C@H](CC(C)C)NC(=O)[C@@H](NC(=O)[C@H](CO)NC(=O)[C@H](Cc1ccc(O)cc1)NC(=O)[C@H](CC(=O)O)NC(=O)[C@H](CO)NC(=O)[C@@H](NC(=O)[C@H](Cc1ccccc1)NC(=O)[C@@H](NC(=O)CNC(=O)[C@H](CCC(=O)O)NC(=O)C(C)(C)NC(=O)[C@@H](N)Cc1ccc(O)cc1)[C@@H](C)O)[C@@H](C)O)[C@@H](C)CC)[C@@H](C)CC)C(=O)N[C@@H](CCC(=O)O)C(=O)NCC(=O)NCC(N)=O
B9: Example 296 (peptide)
peptide: Y[Aib]EGTFTSDYSILLDKK([AEEA-AEEA-γGlu-C18 diacid])AQKAFIEYLIEGGPSSG-NH2
modifications: N-terminus assumed
SMILES: CC[C@H](C)[C@H](NC(=O)[C@H](CC(C)C)NC(=O)[C@H](Cc1ccc(O)cc1)NC(=O)[C@H](CCC(=O)O)NC(=O)[C@@H](NC(=O)[C@H](Cc1ccccc1)NC(=O)[C@H](C)NC(=O)[C@H](CCCCN)NC(=O)[C@H](CCC(N)=O)NC(=O)[C@H](C)NC(=O)[C@H](CCCCNC(=O)COCCOCCNC(=O)COCCOCCNC(=O)CC[C@H](NC(=O)CCCCCCCCCCCCCCCCC(=O)O)C(=O)O)NC(=O)[C@H](CCCCN)NC(=O)[C@H](CC(=O)O)NC(=O)[C@H](CC(C)C)NC(=O)[C@H](CC(C)C)NC(=O)[C@@H](NC(=O)[C@H](CO)NC(=O)[C@H](Cc1ccc(O)cc1)NC(=O)[C@H](CC(=O)O)NC(=O)[C@H](CO)NC(=O)[C@@H](NC(=O)[C@H](Cc1ccccc1)NC(=O)[C@@H](NC(=O)CNC(=O)[C@H](CCC(=O)O)NC(=O)C(C)(C)NC(=O)[C@@H](N)Cc1ccc(O)cc1)[C@@H](C)O)[C@@H](C)O)[C@@H](C)CC)[C@@H](C)CC)C(=O)N[C@@H](CCC(=O)O)C(=O)NCC(=O)NCC(=O)N1CCC[C@H]1C(=O)N[C@@H](CO)C(=O)N[C@@H](CO)C(=O)NCC(N)=O
B10: Example 304 (peptide)
peptide: YXEGTFTSDYSIXLDKKAQXEFIEYLIEGGPSSG
modifications: Aib2; αMeL13; K17((2-[2-(2-Amino-ethoxy)-ethoxy]-acetyl)2-(γ-Glu)-CO-(CH2)16-CO2H); Aib20; C-terminal NH2

molecular target: T1, human GIP receptor (human, UniProt P48546 22-466); assay: [125I]-GIP competition SPA, hGIPR membranes
T1 construct: whole, on cells; also called hGIPR; hGIP-R
T1 sequence (looked up): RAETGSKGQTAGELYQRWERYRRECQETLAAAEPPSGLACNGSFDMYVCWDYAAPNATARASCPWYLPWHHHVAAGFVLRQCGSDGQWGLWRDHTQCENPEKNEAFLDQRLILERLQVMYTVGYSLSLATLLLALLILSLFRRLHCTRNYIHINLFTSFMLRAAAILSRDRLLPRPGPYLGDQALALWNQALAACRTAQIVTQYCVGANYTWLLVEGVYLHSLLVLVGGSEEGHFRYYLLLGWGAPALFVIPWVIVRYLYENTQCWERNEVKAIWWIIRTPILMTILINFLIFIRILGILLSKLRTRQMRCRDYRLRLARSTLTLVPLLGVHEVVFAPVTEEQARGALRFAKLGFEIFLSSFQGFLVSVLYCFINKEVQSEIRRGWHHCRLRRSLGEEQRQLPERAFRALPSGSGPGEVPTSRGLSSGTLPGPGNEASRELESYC
Protocol: The binding buffer contains 25 mM HEPES, pH 7.4, 2.5 mM CaCl₂, 1 mM MgCl₂, 0.1% (w/v) bacitracin, 0.003% (w/v) TWEEN®-20, and Roche Complete™ Protease Inhibitors without EDTA. […] Plates are sealed and mixed on a plate shaker (setting 6) for 1 minute and read with a PerkinElmer Trilux MicroBeta® scintillation counter after 2.5 to 12 hours of incubation/settling time at room temperature.
(§1) Data are analyzed using four-parameter (curve maximum, curve minimum, IC₅₀, Hill slope) nonlinear regression routines (Genedata Screener, version 12.0.4, Genedata AG, Basal, Switzerland). […] Values for Kᵢ are reported as the geometric mean, with error expressed as the standard error of the mean (SEM) and n is equal to the number of independent replicates (determined in assays performed on different days). Geometric Means are calculated as follows: […]

Row | Binder | Ki [nM]
1 | B1 | 0.0507
2 | B2 | 0.129
3 | B3 | 0.337
4 | B4 | 0.672
5 | B5 | 0.316
6 | B6 | 0.129
7 | B7 | 0.175
8 | B8 | 0.181
9 | B9 | 0.444
10 | B10 | 0.0499

molecular target: T2, human GLP-1 receptor (human, UniProt P43220 24-463); assay: [125I]-GLP-1 competition SPA, hGLP-1R membranes
T2 construct: whole, on cells; also called hGLP-1R; hGLP1R
Protocol: The binding buffer contains 25 mM HEPES, pH 7.4, 2.5 mM CaCl₂, 1 mM MgCl₂, 0.1% (w/v) bacitracin, 0.003% (w/v) TWEEN®-20, and Roche Complete™ Protease Inhibitors without EDTA.
as §1

Row | Binder | Ki [nM]
11 | B1 | 14.8
12 | B2 | 3.16
13 | B3 | 6.95
14 | B4 | 17.2
15 | B5 | 7.02
16 | B6 | 15.4
17 | B7 | 7.85
18 | B8 | 4.12
19 | B9 | 3.33
20 | B10 | 4.44
